No end group written: not given here.
Columns and labels:
[1] = system: human dermal fibroblasts (HDFs); assay: In vitro cytotoxicity, MTT assay; type: cell-based; conditions: 2000 μg/mL, 24 h
Procedure: (§1) 1000 μL of HDFs or keratinocytes (10^5 cells per mL) were seeded onto the 12-well Transwell plates (Corning). IIK12 (1%) with various contents of antimicrobial peptides were dissolved in water and incubated at 37° C. overnight and 100 μL of gels were then transferred to the inserts of the Transwell plate. 1 mL of fresh medium was added into the inserts. The plates were incubated for 24 h before proceeding to MTT assay. It is noted that cells without any treatment and Mupirocin (GSK) were used as controls. The data were expressed as mean and standard deviation of three replicates and the tests were repeated 3 times.

[2] = system: human primary keratinocytes; assay: In vitro cytotoxicity, MTT assay; type: cell-based; conditions: 24 h
Procedure: as §1

S. aureus [3] = assay: Killing kinetics test; type: cell-based; conditions: 24 h of incubation
Procedure: The microbes were treated with peptide hydrogels as described above. At various time periods of treatment, the microbial samples were diluted for plating (LB Agar, 1st Base). Incubation conditions: 18 h, 37° C. for bacteria. The colony-forming units were counted after the incubation period. The experiment was repeated in independent settings three times.

[4] = Rheology, G′ and G″ at frequency of 1 Hz; type: physicochemical; conditions: incubated at 37° C. overnight
Procedure: The gelation time was determined by the vial tilting method. […] Rheology experiments were performed at room temperature using a control-strain rheometer (ARES G2, TA instruments). The rheometer is equipped with two sensitive force transducers for torque ranging from 0.05 μN·m to 200 mN·m. […] The solution was vortexed and then incubated to form hydrogel. The gel was placed onto parallel-plate geometry (8 mm in diameter). The dynamic storage modulus (G′) and loss modulus (G″) were examined as a function of frequency from 1 to 100 rad/s. The measurements were carried out at a strain amplitude (y) to ensure the linearity of viscoelasticity. Flow sweep (viscosity changes as a function of shear rate) was also performed to study shear thinning properties of hydrogels.

E. coli = assay: Antimicrobial activity of peptide hydrogels (OD and agar plating); type: cell-based; conditions: control gel, IIK12 at 1%, no antimicrobial peptide
Procedure: (§2) Hydrogels for the antimicrobial assays were prepared in 96-well tissue culture plates (NUNC). Briefly, IIK12 (1%) with various contents of antimicrobial peptides was dissolved in water and vortexed. 50 μL of solution was transferred to the wells. Gelation occurred overnight at 37° C. The growth of microorganisms on hydrogels was measured using a broth dilution method. Briefly, 30 μL of microorganism suspension (3.5×10^5 CFU/mL) was introduced onto the hydrogels, and a 96-well plate and peptide hydrogel without antimicrobial peptides were used as controls. The optical density readings of bacterial solutions were monitored by measuring OD600 nm. The assay was performed in four replicates for each sample and the experiments were repeated at least three times. Antimicrobial activity was further tested through a spread plate method. Briefly, hydrogels were challenged with microorganism solution, at the end of treatment, microbial suspension on the hydrogel surface was withdrawn and diluted sequentially, and then plated on 1.5% LB agar plates. The plates were incubated for 24 h at 37° C. (48 h at room temperature for C. albicans). Microbial colonies were formed and counted. The experiments were performed in triplicate and were repeated three times.

C. albicans = assay: as above; type: cell-based; conditions: control gel, IIK12 at 1%, no antimicrobial peptide
Procedure: as §2

S. aureus [5] = assay: as above; type: cell-based; conditions: control gel, IIK12 at 1%, no antimicrobial peptide
Procedure: as §2

S. aureus [6] = assay: Disk diffusion assay; type: cell-based; conditions: hydrogel cast on inoculated agar, one day at 37° C.
Procedure: Antimicrobial activity was further tested through a disk diffusion assay. Briefly, microbial suspension (S. aureus, ATCC No. 6538) with 3.5×10^6 CFU/mL (40 μL) was spread on 1.5% LB agar plates. Disks (Sigma) were prepared to contain 50 μL of peptides with various concentrations by dripping 50 μL of peptides solutions onto a sterile disk. Disks were air-dried for several minutes before being placed onto different zones in the agar plates. Hydrogels (100 μL) were placed onto LB agar plates. The plates were incubated for 24 h at 37° C.

[7] = Dynamic step strain amplitude test; type: physicochemical; conditions: 2.0 (w/v) % in water
Excerpt: The reduction of viscosity was attributed to the disruption of physical cross-links between the peptide molecules upon the application of shear stress. In order for a peptide gel construct containing a drug and/or cell/s to be delivered by syringe, it is essential that the disrupted gel with low viscosity could rapidly recover back into a stiff gel when the shear stress terminates. The ability of the peptide hydrogels to recover was investigated using a dynamic step strain amplitude test, where strain of 0.5% and 100% were periodically applied on the peptide hydrogels. […] After subjected 30 s of continuous high strain, the strain was reduced to 0.5%. […] This reversibility of peptide hydrogel in the presence of DMEM was further evaluated under the same conditions. […] The G′ value is reduced remarkably by ˜2000 times to ˜1 Pa when subjected a high stain of 100%. […] A similar phenomenon was also observed for IIK12 hydrogel, where the storage moduli of IIK12 hydrogel increased with increasing peptide concentrations (Table 5). […] This rheological behavior of the peptide hydrogels offers a great advantage for use as an injectable matrix for delivery of therapeutics such as drugs and cells. The fast recovery kinetics can be explained by the fact that the physical cross-links of the gel network immediately recovered after the high strain terminated.

[8] = Gelation by vial tilting method; type: physicochemical
Procedure: The peptide powder was dissolved in water or other aqueous solutions at the required concentrations. Alternatively, the required salt may be added after the peptide aqueous solution is prepared. The hydrogel was formed by mixing the peptide aqueous solution and salt (if required). For example, the solution was vortexed and then incubated to form hydrogel. The hydrogel formed may be stored as formed, or may be dried, for example by freeze drying. Alternatively, the hydrogel may be formed as required. The gelation time was determined by the vial tilting method. […] Rheology experiments were performed at room temperature using a control-strain rheometer (ARES G2, TA instruments). The rheometer is equipped with two sensitive force transducers for torque ranging from 0.05 μN·m to 200 mN·m. The peptide powder was dissolved in water at concentrations ranging from 1.0 to 2.0 (w/v) %. The solution was vortexed and then incubated to form hydrogel. The gel was placed onto parallel-plate geometry (8 mm in diameter). The dynamic storage modulus (G′) and loss modulus (G″) were examined as a function of frequency from 1 to 100 rad/s. The measurements were carried out at a strain amplitude (y) to ensure the linearity of viscoelasticity. Flow sweep (viscosity changes as a function of shear rate) was also performed to study shear thinning properties of hydrogels.

## C/C(=C\C(=O)OCCCCCCCCC(=O)O)C[C@@H]1OC[C@H](C[C@@H]2O[C@H]2[C@@H](C)[C@H](C)O)[C@@H](O)[C@H]1O [Mupirocin, reference compound]
[1]
  Cell viability: more than 80%
[2]
  Cell viability: 80-90%

## IRIKIEIEIRIK (IRIKIEIEIRIK-NH2) [IIK12]
S. aureus [3]
  Log (CFU): 9.28
[4]; 0.6 wt %, H2O
  G′ (storage modulus): 65 Pa
  G″ (loss modulus): 7 Pa
[4]; 0.8 wt %, H2O
  G′ (storage modulus): 131 Pa
  G″ (loss modulus): 24 Pa
[4]; 1.0 wt %, DMEM
  G′ (storage modulus): 1206 Pa
  G″ (loss modulus): 176 Pa
[4]; 1.0 wt %, H2O
  G′ (storage modulus): 279 Pa
  G″ (loss modulus): 48 Pa
[4]; 1.5 wt %, H2O
  G′ (storage modulus): 598 Pa
  G″ (loss modulus): 66 Pa
[4]; 2.0 wt %, H2O
  G′ (storage modulus): 865 Pa
  G″ (loss modulus): 69 Pa
E. coli
  Killing of the microbes (OD measurement and agar plating): ineffective
C. albicans
  Killing of the microbes (OD measurement and agar plating): ineffective
S. aureus [5]
  Killing of the microbes (OD measurement and agar plating): ineffective
S. aureus [6]
  S. aureus colony formation on agar in contact with gel: ineffective
[7]
  Rheological behavior in dynamic step strain amplitude measurement: reversible rheological behavior
[8]; aqueous solution
  Lowest concentration at which hydrogels self-assembled: 0.6 (w/v) %
[8]; peptide conc. 0.6, 1.0 %
  Gelation in DI water at 37° C. (via tilting): Gel

— US20220356210A1, “A SERIES OF INJECTABLE HYDROGELS SELF-ASSEMBLED FROM SHORT PEPTIDES FOR VARIOUS BIOMEDICAL APPLICATIONS” (Agency for Science, Technology and Research, priority 2019, published 2022)
